# Source: paper PMC11937253
# B1: Nanobody H3L-01 (VHH)
# VHH: QVQLVESGGGLVQAGGSLRLSCAASGRIFWWVPMGWYRQAPGKEREFVAGISKGDSTYYADSVKGRFTISRNNAKNTVYLQMNSLKPEDTAVYYCAANPRNNRFRAGVYDYWGQGTQVTVSS
# B2: Nanobody H3L-02 (VHH)
# VHH: QVQLVESGGGLVQAGGSLRLSCAASGRIFLHRIMGWYRQAPGKERELVASISRGDNTYYADSVKGRFTISRDNAKNTVYLQMNSLKPEDTAVYYCAAGTGRHKDDHKDYDYWGQGTQVTVSS
# B3: Nanobody H3L-03 (VHH)
# VHH: QVQLVESGGGLVQAGGSLRLSCAASGRIFFFAKMGWYRQAPGKEREFVASIVYGDITYYADSVKGRFTISRDNAKNTVYLQMNSLKPEDTAVYYCAAKPHWPSRRPRRYDYWGQGTQVTVSS
# B4: Nanobody E8L-07 (VHH)
# VHH: QVQLVESGGGLVQAGGSLRLSCAASGSIFKRYKMGWYRQAPGKEREFVACINKGGDTNYADSVKGRFTISRDNAKNTVYLQMNSLKPEDTAVYYCAVKRHAKAYGEFFYDYWGQGTQVTVSS
# B5: Nanobody E8L-03 (VHH)
# VHH: QVQLVESGGGLVQAGGSLRLSCAASGFIFTTRGMGWYRQAPGKEREFVACIFPGSSTNYADSVKGRFTISRDNAKNTVYLQMNSLKPEDTAVYYCAAEGPYRGFNFKKNLYDYWGQGTQVTVSS
# B6: Nanobody E8L-08 (VHH)
# VHH: QVQLVESGGGLVQAGGSLRLSCAASGFIFTNWGMGWYRQAPGKERELVAAITSGSSTNYADSVKGRFTISRDNAKNTVYLQMNSLKPEDTAVYYCAAIRGFSLIYQFFAQYDYWGQGTQVTVSS
# B7: Nanobody E8L-02 (VHH)
# VHH: QVQLVESGGGLVQAGGSLRLSCAASGRIFTDSYMGWYRQAPGKEREFVACITTGSSTYYADSVKGRFTISRDNAKNTVYLQMNSLKPEDTAVYYCAARFRYTVQHWFHTKFDYWGQGTQVTVSS
# B8: Nanobody E8L-04 (VHH)
# VHH: QVQLVESGGGLVQAGGSLRLSCAASGRIFGRRAMGWYRQAPGKEREFVAAISNGFNTNYADSVKGRFTISRDNAKNTVYLQMNSLKPEDTAVYYCAATVSRRGEQTFFYDYWGQGTQVTVSS
# B9: Nanobody E8L-05 (VHH)
# VHH: QVQLVESGGGLVQAGGSLRLSCAASGRIFDTVEMGWYRQAPGKEREFVASISGGDSTYYADSVKGRFTISRDNAKNTVYLQMNSLKPEDTAVYYCAARSARNRWSIIFYDYWGQGTQVTVSS
# B10: Nanobody E8L-01 (VHH)
# VHH: QVQLVESGGGLVQAGGSLRLSCAASGRIFINRVMGWYRQAPGKEREFVAGIAQGGSTNYADSVKGRFTISRDNAKNTVYLQMNSLKPEDTAVYYCAAKFWNWHHDHRGYDYWGQGTQVTVSS
# B11: Nanobody E8L-06 (VHH)
# VHH: QVQLVESGGGLVQAGGSLRLSCAASGFIFTSTRMGWYRQAPGKEREFVAGISIGGNTNYADSVKGRFTISRDNAKNTVYLQMNSLKPEDTAVYYCAARYYYFHNHNFAYDYWGQGTQVTVSS
# B12: Nanobody B6R-03 (VHH)
# VHH: QVQLVESGGGLVQAGGSLRLSCAASGRILHRKGMGWYRQAPGKEREFVAAINKGGSTNYADSVKGRFTISRDNAKNTVYLQMNSLKPEDTAVYYCAVGKKRRTWINRHYDYWGQGTQVTVSS
# B13: Nanobody B6R-04 (VHH)
# VHH: QVQLVESGGGLVQAGGSLRLSCAASGRIFASDRMGWYRQAPGKEREFVAAISYGSRTNYADSVKGRFTISRDNAKNTVYLQMNSLKPEDTAVYYCAVWAFHRSWKERSHWHDYWGQGTQVTVSS
# B14: Nanobody B6R-02 (VHH)
# VHH: QVQLVESGGGLVQAGGSLRLSCAASGRIFRRNVMGWYRQAPGKEREFVAAITKGGYTNYADSVKGRFTISRDNAKNTVYLQMNSLKPEDTAVYYCAARYFHRKRHKWRHDYWGQGTQVTVSS
# B15: Nanobody B6R-05 (VHH)
# VHH: QVQLVESGGGLVQAGGSLRLSCAASGRIFHPGAMGWYRQAPGKEREFVAGISSGGNTYYADSVKGRFTISRDNAKNTVYLQMNSLKPEDTAVYYCAAPFRWVKATGRFLDYWGQGTQVTVSS
# B16: Nanobody B6R-06 (VHH)
# VHH: QVQLVESGGGLVQAGGSLRLSCAASGRIFRKRNMGWYRQAPGKEREFVASISRGSNTYYADSVKGRFTISRDNAKNTVYLQMNSLKPEDTAVYYCAVWRHRTFVRWKHFDYWGQGTQVTVSS
# B17: Nanobody M1R-03 (VHH)
# VHH: QVQLVESGGGLVQAGGSLRLSCAASGSIFETGAMGWYRQAPGKEREFVAAITGWDTNYADSVKGRFTISRDNAKNTVYLQMNSLKPEDTAVYYCAASHWISFYWEHYHPYDYWGQGTQVTVSS
# B18: Nanobody M1R-05 (VHH)
# VHH: QVQLVESGGGLVQAGGSLRLSCAASGFIFYAWHMGWYRQAPGKERELVASIAYGGDTNYADSVKGRFTISRDNAKNTVYLQMNSLKPEDTAVYYCAAVHFTHHKWDQEYDYWGQGTQVTVSS
# B19: Nanobody M1R-02 (VHH)
# VHH: QVQLVESGGGLVQAGGSLRLSCAASGFIFDHWEMGWYRQAPGKEREFVASISAGLSTNYADSVKGRFTISRDNAKNTVYLQMNSLKPEDTAVYYCAARHFTAVFWKNSYDYWGQGTQVTVSS
# Molecular target: MPXV H3L ectodomain, His-tagged recombinant protein (mpox virus (MPXV), isolate MPXV_USA_2022_MA001)
# Test: SPR; BiaCore T200; […]; 1:1 binding model
Binder,Kd,koff,kon
B1,11.2 nM,0.0209 s⁻¹,1.87e+06 M⁻¹ s⁻¹
B2,94.8 nM,0.0725 s⁻¹,765000 M⁻¹ s⁻¹
B3,35.2 nM,0.0092 s⁻¹,261000 M⁻¹ s⁻¹

# Molecular target: MPXV E8L ectodomain, His-tagged recombinant protein (mpox virus (MPXV), isolate MPXV_USA_2022_MA001)
# Test: SPR; BiaCore T200; […]; 1:1 binding model
Binder,Kd,koff,kon
B4,3.17 nM,0.0018 s⁻¹,539000 M⁻¹ s⁻¹
B5,5.81 nM,0.0034 s⁻¹,662000 M⁻¹ s⁻¹
B6,3.11 nM,0.002 s⁻¹,646000 M⁻¹ s⁻¹
B7,1.69 nM,0.0003 s⁻¹,184000 M⁻¹ s⁻¹
B8,1.77 nM,0.0015 s⁻¹,876000 M⁻¹ s⁻¹
B9,2.39 nM,0.002 s⁻¹,838000 M⁻¹ s⁻¹
B10,0.66 nM,0.0029 s⁻¹,4.35e+06 M⁻¹ s⁻¹
B11,11.6 nM,0.0105 s⁻¹,910000 M⁻¹ s⁻¹

# Molecular target: MPXV B6R ectodomain, His-tagged recombinant protein (mpox virus (MPXV), isolate MPXV_USA_2022_MA001)
# Test: SPR; BiaCore T200; […]; 1:1 binding model
Binder,Kd,koff,kon
B12,3180 nM,0.349 s⁻¹,110000 M⁻¹ s⁻¹
B13,1030 nM,0.0412 s⁻¹,39900 M⁻¹ s⁻¹
B14,14000 nM,0.0029 s⁻¹,209 M⁻¹ s⁻¹
B15,95400 nM,0.0008 s⁻¹,8.9 M⁻¹ s⁻¹
B16,12.1 nM,0.0056 s⁻¹,462000 M⁻¹ s⁻¹

# Molecular target: MPXV M1R ectodomain, His-tagged recombinant protein (mpox virus (MPXV), isolate MPXV_USA_2022_MA001)
# Test: SPR; BiaCore T200; […]; 1:1 binding model
Binder,Kd,koff,kon
B17,24.9 nM,0.0401 s⁻¹,1.61e+06 M⁻¹ s⁻¹
B18,85.9 nM,0.0037 s⁻¹,42800 M⁻¹ s⁻¹
B19,23.5 nM,0.0016 s⁻¹,68300 M⁻¹ s⁻¹
